“Also recorded” adds a separate entry of the source. Like-named read-outs stand apart in the source and are kept apart here.
Tests used:
Azocoll = assay: Azocoll-decomposing activity; format: biochemical; conditions: for SUBSTRATE SPECIFICITY: substrate Azocoll
Casein = assay: Substrate specificity, Casein; format: biochemical
lactase [1] = assay: Lactase-fragmenting activity (LDU); format: biochemical, Kluyveromyces; conditions: for SUBSTRATE SPECIFICITY: substrate Lactase
From the text: In addition, the “lactase-fragmenting action” in the claims and description can be an action by which the neutral lactase around 120 kDa in SDS-PAGE is fragmented, and preferably the fragments of the fragmented lactase show the neutral lactase activity. As a method for evaluating an influence on the fragmentation activity of PrB, the “lactase-fragmenting activity” can be also used as its index. This “lactase-fragmenting activity” indicates the enzyme activity of fragmenting the lactase protein, and an actual index can be defined as follows. When the band strength around 120 kDa of a sample to which PrB is not added is regarded as 100%, the band area relative value around 120 kDa of samples obtained by adding 1 to 4 mACU of PrB is found as a relative value (1 ACU means the amount of enzyme which raises the absorbance at 428 nm by 1 at 30° C. for an hour using azocasein as a substrate). Next, the amount of enzyme added when the lactase band after reaction at 30° C. for an hour decreases by 20% compared to when PrB is not added is regarded as 1 LDU (Lactase Degradation Unit) of lactase-fragmenting activity.

[2] = Substrate specificity, Ac-Phe-pNa; format: biochemical
[3] = Substrate specificity, Bz-Tyr-pNa; format: biochemical
[4] = Substrate specificity, Bz-Arg-pNa; format: biochemical
lactase [5] = assay: Fragmentation of lactase confirmed by SDS-PAGE; format: biochemical, Kluyveromyces
Method: First, the state of fragmentation of lactase in a lactase solution can be confirmed by SDS-PAGE using 10% polyacrylamide gel. For example, a lactase solution is diluted with purified water as needed, and mixed with Sample Buffer for SDS-PAGE at 1:1, and electrophoresis samples are prepared by heat treatment at 100° C. for 3 minutes. Next, the standard and electrophoresis samples are applied to 10% acrylamide gel, and subjected to electrophoresis. The molecular weight of lactase can be also roughly estimated by comparison with the standard. As the standard, CLEARLY Stained Protein Ladder (Takara #3454A) and the like are used. The gel after electrophoresis is subjected to protein staining using a CBB staining solution (BIO-RAD #161-0786).
The gel after staining was scanned as a grayscale image with a scanner GT-X820 manufactured by Seiko Epson Corporation. Furthermore, the concentration of each band (protein amount) can be also measured by Image J software (NIH, Bethesda, Md.). […]
As prior consideration, the following test was carried out about a relationship between the fragmentation and heat stability of lactase. […] As the conditions of the heat stability test, using an enzyme solution (lactase solution) diluted to 0.25 NLU/g, the activity after treatment at 50° C. for 10 minutes was calculated as the remaining activity (%) to that of an untreated sample. […]

Azocasein = assay: Substrate specificity, Azocasein; format: biochemical
From the text: As a method for evaluating an influence on the fragmentation activity of PrB, the “lactase-fragmenting activity” can be also used as its index. This “lactase-fragmenting activity” indicates the enzyme activity of fragmenting the lactase protein, and an actual index can be defined as follows. When the band strength around 120 kDa of a sample to which PrB is not added is regarded as 100%, the band area relative value around 120 kDa of samples obtained by adding 1 to 4 mACU of PrB is found as a relative value (1 ACU means the amount of enzyme which raises the absorbance at 428 nm by 1 at 30° C. for an hour using azocasein as a substrate). Next, the amount of enzyme added when the lactase band after reaction at 30° C. for an hour decreases by 20% compared to when PrB is not added is regarded as 1 LDU (Lactase Degradation Unit) of lactase-fragmenting activity.

FITC-casein = assay: FITC-casein-decomposing activity; format: biochemical; conditions: for SUBSTRATE SPECIFICITY: substrate FITC-casein
BSA = assay: Substrate specificity, BSA; format: biochemical
[6] = pH 7.0, cited from earlier work
[7] = FITC-casein-decomposing activity
[8] = FITC-casein-decomposing activity, listed as K. lactis

B1: PrB: proteinase B derived from Kluyveromyces lactis, neutral protease with lactase-fragmenting activity, SEQ ID NO:1 (protein, listed as Kluyveromyces lactis)
chain: SFNTQNSAPWGLARISHREKLNLGSFNKYLYDDDAGKGVTAYVVDTGVNVNHKDFDGRAVWGKTIPKDDPDVDGNGHGTHCAGTIGSVHYGVAKNADIVAVKVLRSNGSGTMSDVVKGVEYVAEAHKKAVEEQKKGFKGSTANMSLGGGKSPALDLAVNAAVKAGVHFAVAAGNENQDACNTSPAAAENAITVGASTLSDERAYFSNWGKCVDIFGPGLNILSTYIGSDTATATLSGTSMATPHVVGLLTYFLSLQPDADSEYFHAAGGITPSQLKKKLIDFSTKNVLSDLPEDTVNY
In the case of B1, the “SUBSTRATE SPECIFICITY” value (Azocoll) is reported as 1.9, the “SUBSTRATE SPECIFICITY” value (Casein) is reported as 0 and the INHIBITOR (lactase [1]; lactase-fragmenting activity) is reported as “AEBSF”. For the same molecule, the “OPTIMUM REACTION TEMPERATURE” value (lactase [1]; lactase-fragmenting activity) was 40 °C, the “OPTIMUM REACTION pH” value (lactase [1]; lactase-fragmenting activity) was “pH 7.0” and the “SUBSTRATE SPECIFICITY” value (lactase [1]) was “high substrate specificity”. The “SUBSTRATE SPECIFICITY” value (lactase [1]; listed as K. lactis) was 1159, the “SUBSTRATE SPECIFICITY” value [2] was 0 and the “SUBSTRATE SPECIFICITY” value [3] was 0. For the same molecule, the “SUBSTRATE SPECIFICITY” value [4] was 0, the “state of fragmentation of lactase (SDS-PAGE)” value (lactase [5]) was “fragmentation of lactase proceeded” and the “amount of PrB at which fragmentation was not caused” value (lactase [5]; with respect to 1 NLU of lactase activity, added to F-1, 30° C. for 20 hours) was 0.26 ng. The “SUBSTRATE SPECIFICITY” value (Azocasein) was 1, the ACTIVATOR (FITC-casein; [7]) was “Ca^2+” and the “HEAT STABILITY” value (FITC-casein; [7]) was 40 °C. For the same molecule, the INHIBITOR (FITC-casein; [7]) was “Cu^2+, Fe^2+”, the “OPTIMUM REACTION TEMPERATURE” value (FITC-casein; [7]) was “about 40 °C” and the “OPTIMUM REACTION pH” value (FITC-casein; [7]) was “about 8.0 pH”. For the same molecule, the “pH STABILITY” value (FITC-casein; [7]) was 5.0 to 8.0 pH, the “OPTIMUM REACTION TEMPERATURE” value (FITC-casein; [8]) was 40 °C and the “OPTIMUM REACTION pH” value (FITC-casein; [8]) was “pH 8.0”. For the same molecule, the “pH STABILITY” value (FITC-casein; [8]) was “pH 5.0~8.0”, the “SUBSTRATE SPECIFICITY” value (FITC-casein) was “high substrate specificity” and the “SUBSTRATE SPECIFICITY” value (FITC-casein; listed as K. lactis) was 78. The “SUBSTRATE SPECIFICITY” value (BSA) was 0.

B2: S. cerevisiae: PrB derived from S. cerevisiae, comparison enzyme (protein, UniProt P09232 281-574, looked up)
Cerevisin: EFDTQNSAPWGLARISHRERLNLGSFNKYLYDDDAGRGVTSYVIDTGVNINHKDFEKRAIWGKTIPLNDEDLDGNGHGTHCAGTIASKHYGVAKNANVVAVKVLRSNGSGTMSDVVKGVEYAAKAHQKEAQEKKKGFKGSTANMSLGGGKSPALDLAVNAAVEVGIHFAVAAGNENQDACNTSPASADKAITVGASTLSDDRAYFSNWGKCVDVFAPGLNILSTYIGSDDATATLSGTSMASPHVAGLLTYFLSLQPGSDSEFFELGQDSLTPQQLKKKLIHYSTKDILFDIPE
For B2, the “HEAT STABILITY” value (Azocoll; Azocoll-decomposing activity) was 25 °C, the INHIBITOR (Azocoll; Azocoll-decomposing activity) was “PCMB, PMSF,; also recorded: HgCl2” and the “OPTIMUM REACTION pH” value (Azocoll; Azocoll-decomposing activity) was “pH 7.0”. The “SUBSTRATE SPECIFICITY” value (Azocoll) was 9.1, the “SUBSTRATE SPECIFICITY” value [3] was 0.2 and the “SUBSTRATE SPECIFICITY” value (Azocasein) was 1.

B3: lactase described in Patent Literature 1: lactase from cultures of a strain of Kluyveromyces lactis (JP 60-18394 B) (protein, UniProt P00723 1-1025, looked up)
Beta-galactosidase: MSCLIPENLRNPKKVHENRLPTRAYYYDQDIFESLNGPWAFALFDAPLDAPDAKNLDWETAKKWSTISVPSHWELQEDWKYGKPIYTNVQYPIPIDIPNPPTVNPTGVYARTFELDSKSIESFEHRLRFEGVDNCYELYVNGQYVGFNKGSRNGAEFDIQKYVSEGENLVVVKVFKWSDSTYIEDQDQWWLSGIYRDVSLLKLPKKAHIEDVRVTTTFVDSQYQDAELSVKVDVQGSSYDHINFTLYEPEDGSKVYDASSLLNEENGNTTFSTKEFISFSTKKNEETAFKINVKAPEHWTAENPTLYKYQLDLIGSDGSVIQSIKHHVGFRQVELKDGNITVNGKDILFRGVNRHDHHPRFGRAVPLDFVVRDLILMKKFNINAVRNSHYPNHPKVYDLFDKLGFWVIDEADLETHGVQEPFNRHTNLEAEYPDTKNKLYDVNAHYLSDNPEYEVAYLDRASQLVLRDVNHPSIIIWSLGNEACYGRNHKAMYKLIKQLDPTRLVHYEGDLNALSADIFSFMYPTFEIMERWRKNHTDENGKFEKPLILCEYGHAMGNGPGSLKEYQELFYKEKFYQGGFIWEWANHGIEFEDVSTADGKLHKAYAYGGDFKEEVHDGVFIMDGLCNSEHNPTPGLVEYKKVIEPVHIKIAHGSVTITNKHDFITTDHLLFIDKDTGKTIDVPSLKPEESVTIPSDTTYVVAVLKDDAGVLKAGHEIAWGQAELPLKVPDFVTETAEKAAKINDGKRYVSVESSGLHFILDKLLGKIESLKVKGKEISSKFEGSSITFWRPPTNNDEPRDFKNWKKYNIDLMKQNIHGVSVEKGSNGSLAVVTVNSRISPVVFYYGFETVQKYTIFANKINLNTSMKLTGEYQPPDFPRVGYEFWLGDSYESFEWLGRGPGESYPDKKESQRFGLYDSKDVEEFVYDYPQENGNHTDTHFLNIKFEGAGKLSIFQKEKPFNFKISDEYGVDEAAHACDVKRYGRHYLRLDHAIHGVGSEACGPAVLDQYRLKAQDFNFEFDLAFE
In the case of B3, the deactivated ([6]; 50° C. for 10 minutes) is given as 45% and the deactivated ([6]; 55° C. for 10 minutes) is given as 100%.

From patent US20190075806A1, “PROTEINASE B AND LACTASE SOLUTION USING ITS PROPERTIES AND METHOD FOR PRODUCING THE SAME” (GODO SHUSEI CO., LTD., priority 2016, published 2019)
